# Results published in the RNAGym collection of RNA variant scans (doi:10.7554/elife.80360).
# B1: HDV Ribozyme (parent)
# chain: GGCCGGCAUGGUCCCAGCCUCCUCGCUGGCGCCGGCUGGGCAACAUUCCGAGGGGACCGUCCCCUCGGUAAUGGCGAAUGGGACCCA
# Variants of: B1
# Assay: self-cleavage, relative activity (ratio to wild type); higher = more cleavage; co-transcriptional
row,Variant,self-cleavage
1,GUCCGGCAUGGUCCCAGCCUCCUCGCUGGCGCCGGCUGGGCAACAUUCCGAGGGGACCGUCCCCUCGGUAAUGGCGAAUGGCACCCA,0.112
2,GUCCGGCAUGGUCCCAGCCUCCUCGCUGGCGCCGGCUGGGCAACAGUCCGAGGGGACCGUCCCCUCGGUAAUGGCGAAUGGGACCCA,0.0231
3,GUCCGGCAUGGUCCCAGCCUCCUCGCUGGCGCCGGCUGGGCAACAAUCCGAGGGGACCGUCCCCUCGGUAAUGGCGAAUGGGACCCA,0.0187
4,GGACGGCAUGGUCCCAGCGUCCUCGCUGGCGCCGGCUGGGCAACAUUCCGAGGGGACCGUCCCCUCGGUAAUGGCGAAUGGGACCCA,0.0441
5,GGACGGCAUGGUCCCAGCCUCCUCGCUGGCGCCGGCUGGGCAACUUUCCGAGGGGACCGUCCCCUCGGUAAUGGCGAAUGGGACCCA,0.269
6,GUCCGGCAUGGGCCCAGCCUCCUCGCUGGCGCCGGCUGGGCAACAUUCCGAGGGGACCGUCCCCUCGGUAAUGGCGAAUGGGACCCA,0.0346
7,GUCCGGCAUGGCCCCAGCCUCCUCGCUGGCGCCGGCUGGGCAACAUUCCGAGGGGACCGUCCCCUCGGUAAUGGCGAAUGGGACCCA,0.0241
8,GUCCGGCAUGGUCCCAGCCUCCUCGCUGGCGCCGGCUGGGCAACAUUCCGAGGGGACCGUCCCCUCGGUAAUGGCAAAUGGGACCCA,0.112
9,GUCCGGCAUGGUCCCAGCCUCCUCGCUGGCGCCGGCUGGGCAACAUUCCGAGGGGACCGUCCCCUCGGUAACGGCGAAUGGGACCCA,0.0191
10,GGACGGCAUGGUCCCAGCCUCCUCGCUGGCGCCGGCUGGGCAACAUUCCGAGGGGACCGUCCCCUCGGUAAUGGCGAAUGGGACCCU,0.632
11,GGACGGCAUGGUCCCAGCCUCCUCGCUGGCGCCGGAUGGGCAACAUUCCGAGGGGACCGUCCCCUCGGUAAUGGCGAAUGGGACCCA,0.071
12,GGACGGCAUGGUCGCAGCCUCCUCGCUGGCGCCGGCUGGGCAACAUUCCGAGGGGACCGUCCCCUCGGUAAUGGCGAAUGGGACCCA,0.17
13,GUCCGGCAUGGUCCCAGCCUCCUCGCUGGCGCCGUCUGGGCAACAUUCCGAGGGGACCGUCCCCUCGGUAAUGGCGAAUGGGACCCA,0.0318
14,GUCCGGCAUGGUCCCAGCCUCCUCGCUGGCGCCGACUGGGCAACAUUCCGAGGGGACCGUCCCCUCGGUAAUGGCGAAUGGGACCCA,0.0308
15,GGACGGCAUGGUCCCAGCCUCCUCGCUGGCGCCGGCUGGGCAACAUUCCGAGGGGACCGUCCCCUCGGUAGUGGCGAAUGGGACCCA,0.38
16,GGACGGCAUGGUCCCAGCCUCCUCGCUGGCGCCGGCUGGGCAACAUUCCGAGGGGACCGUCCCCUCGGUAUUGGCGAAUGGGACCCA,0.385
17,GGACGGCAUGGUCCUAGCCUCCUCGCUGGCGCCGGCUGGGCAACAUUCCGAGGGGACCGUCCCCUCGGUAAUGGCGAAUGGGACCCA,0.371
18,GUCCGGCAUGGUCCCAGCCUCCGCGCUGGCGCCGGCUGGGCAACAUUCCGAGGGGACCGUCCCCUCGGUAAUGGCGAAUGGGACCCA,0.0287
19,GUCCGGCAUGGUCCCAGCCUCCACGCUGGCGCCGGCUGGGCAACAUUCCGAGGGGACCGUCCCCUCGGUAAUGGCGAAUGGGACCCA,0.0391
20,GUCCGGCAUGGUCCCAGCCUCCUCGCUGGCCCCGGCUGGGCAACAUUCCGAGGGGACCGUCCCCUCGGUAAUGGCGAAUGGGACCCA,0.0155
21,GGACGGCAUGGUACCAGCCUCCUCGCUGGCGCCGGCUGGGCAACAUUCCGAGGGGACCGUCCCCUCGGUAAUGGCGAAUGGGACCCA,0.0329
22,GGACGGCCUGGUCCCAGCCUCCUCGCUGGCGCCGGCUGGGCAACAUUCCGAGGGGACCGUCCCCUCGGUAAUGGCGAAUGGGACCCA,0.299

row,Variant,self-cleavage
1,GGACGGCAUGGUCCCAGCCUCCUCGUUGGCGCCGGCUGGGCAACAUUCCGAGGGGACCGUCCCCUCGGUAAUGGCGAAUGGGACCCA,0.853
2,GUCCGGCAUGGUCCCAGCCUCCUCGCUGGCGCCGGCUGGGCAACAUUCCGAGGGGACCGCCCCCUCGGUAAUGGCGAAUGGGACCCA,0.0287
3,GUCCGGCAUGGUCCCAGCCUCCUCGCUCGCGCCGGCUGGGCAACAUUCCGAGGGGACCGUCCCCUCGGUAAUGGCGAAUGGGACCCA,0.0234
4,GUCCGGCAUUGUCCCAGCCUCCUCGCUGGCGCCGGCUGGGCAACAUUCCGAGGGGACCGUCCCCUCGGUAAUGGCGAAUGGGACCCA,0.038
5,GUCCGGCAUGGUCCCAGCCUCCUCGCUGCCGCCGGCUGGGCAACAUUCCGAGGGGACCGUCCCCUCGGUAAUGGCGAAUGGGACCCA,0.0252
6,GGACGGCAUGGUCCCAGCCUCCUGGCUGGCGCCGGCUGGGCAACAUUCCGAGGGGACCGUCCCCUCGGUAAUGGCGAAUGGGACCCA,0.089
7,GUCCGGCAUGGUCCCAGCCUCCUCGCUGGCGCCGGCUGGGCAACAUUCCAAGGGGACCGUCCCCUCGGUAAUGGCGAAUGGGACCCA,0.047
8,GUCCGGCAUGGUCCCAGCCUCCUCGCUGGCGCCGGCUGGGCAACAUUCCCAGGGGACCGUCCCCUCGGUAAUGGCGAAUGGGACCCA,0.0179
9,GGACGGCAUGGUCCCAGCCUCCUCGCUGGCGCCGGCUGGGCUACAUUCCGAGGGGACCGUCCCCUCGGUAAUGGCGAAUGGGACCCA,0.0773
10,GGACGGCAUGGUCCCAGCCUCCUCGCUGGCGCCGGCUGGGCAACAUUGCGAGGGGACCGUCCCCUCGGUAAUGGCGAAUGGGACCCA,0.795
11,GGACGGCAUGGUCCCAGCCUCCUCGCUGGCGCGGGCUGGGCAACAUUCCGAGGGGACCGUCCCCUCGGUAAUGGCGAAUGGGACCCA,0
12,GGACGGCAUGGUCCCAGUCUCCUCGCUGGCGCCGGCUGGGCAACAUUCCGAGGGGACCGUCCCCUCGGUAAUGGCGAAUGGGACCCA,0.00889
13,GGACGGCAUGGUCCCAGACUCCUCGCUGGCGCCGGCUGGGCAACAUUCCGAGGGGACCGUCCCCUCGGUAAUGGCGAAUGGGACCCA,0.0282
14,GGACGGCAUGGUCCCAGCCUCCUCGCUGGCGCCGGCUGGGCAACAUUCCGAGGGGACCGUCCCCUCGGUAAUGGCGAAUGGGGCCCA,0.434
15,GUCCGGCAUGGUCCCAGCCUCCUCGCUGGCGCCGGCUGAGCAACAUUCCGAGGGGACCGUCCCCUCGGUAAUGGCGAAUGGGACCCA,0.00989
16,GUCCGGCAUGGUCCCAGCCUCCUCGCUGGCGCCGGCUGUGCAACAUUCCGAGGGGACCGUCCCCUCGGUAAUGGCGAAUGGGACCCA,0.0543
17,GUCCGGCAUGGUCCCAGCCUCCUCGCUGGCGCCGGCUGGGCAACAUUCCGAUGGGACCGUCCCCUCGGUAAUGGCGAAUGGGACCCA,0.055
18,GGACGGCAUGGUCCCAGCCUCCUCGCUGGCGCCGGCUGGGCAACAUUCCGAGGGGACCGUCCCCUCGGUCAUGGCGAAUGGGACCCA,0.501
19,GUCCGGCAUGGUCCCAGCCUCCUCGCUGGCGCCGGCUGGGCAACAUUCCGAGGGGACCGUCCCCUCGGUAAUAGCGAAUGGGACCCA,0.0484
20,GGACGGCAUGGUCCCAGCCUCCUCGCUGGGGCCGGCUGGGCAACAUUCCGAGGGGACCGUCCCCUCGGUAAUGGCGAAUGGGACCCA,0.0166
21,GUCCGGCAUGGUCCCAGCCUCCUCGCUGGCGCCGGCUGGGCAACAUUCCGAGGGUACCGUCCCCUCGGUAAUGGCGAAUGGGACCCA,0.0654
22,GUCCGGCAUGGUCCCAGCCUCCUCGCUGGCGCCGGCUGGGCAACAUUCCGAGGGGACCGUCCCCUCGGUAAUGGCGAAGGGGACCCA,0

row,Variant,self-cleavage
1,GUCCGGCAUGGUCCCAGCCUCCUCGCUGGCGCCGGCUGGGCAACAUUCCGAGGGGACCGUCCCCUCGGUAAUGGCGAAAGGGACCCA,0
2,GUCCGGCAUGGUCCCAGCCUCCUCGCUGGCGCCGGCUGGGCAACAUUCCGAGGGGACCGUCCCCUCGUUAAUGGCGAAUGGGACCCA,0.134
3,GGACGGCAUGGUCCCAGCCUCCUCGCUGGCGCCGGCUGGGCAACAUUCCGAGGGGAUCGUCCCCUCGGUAAUGGCGAAUGGGACCCA,0.701
4,GGACGGCAUGGUCCCAGCCUCCUCGCUGGCGCCGGCUGGGCAACAUUCCGCGGGGACCGUCCCCUCGGUAAUGGCGAAUGGGACCCA,0.374
5,GGACGGCAUGGUCCCAGCCUCUUCGCUGGCGCCGGCUGGGCAACAUUCCGAGGGGACCGUCCCCUCGGUAAUGGCGAAUGGGACCCA,0.15
6,GGACGGCAUGGUCCCAGCCUCAUCGCUGGCGCCGGCUGGGCAACAUUCCGAGGGGACCGUCCCCUCGGUAAUGGCGAAUGGGACCCA,0.0716
7,GGACGGCAUGGUCCCAGCCUCCUCGCUGGCGCCGGCUGGGUAACAUUCCGAGGGGACCGUCCCCUCGGUAAUGGCGAAUGGGACCCA,0.321
8,GGACGGCAUGGUCCCAGCCUCCUCGCUGGCGCCGGCUGGGAAACAUUCCGAGGGGACCGUCCCCUCGGUAAUGGCGAAUGGGACCCA,0.25
9,GGACGGCAUGGUCCCAGCCUCCUCGCUGGCGCCGGCUGGGCAACAUUCCGAGGGGCCCGUCCCCUCGGUAAUGGCGAAUGGGACCCA,0.495
10,GUCCGGCAUGGUCCCAGCCUCCUCGCUGGCGCCGGCUCGGCAACAUUCCGAGGGGACCGUCCCCUCGGUAAUGGCGAAUGGGACCCA,0.0181
11,GUCCGGCAUGGUCCCAGCCUCCUCGCUGGCGCCAGCUGGGCAACAUUCCGAGGGGACCGUCCCCUCGGUAAUGGCGAAUGGGACCCA,0.0671
12,GUCCGGCAUGGUCCCAGCCUCCUCGCUGGCGCCCGCUGGGCAACAUUCCGAGGGGACCGUCCCCUCGGUAAUGGCGAAUGGGACCCA,0.0484
13,GUCCGGCAUGGUCCCAGCCUCCUCGCUGGCGCCGGCUGGUCAACAUUCCGAGGGGACCGUCCCCUCGGUAAUGGCGAAUGGGACCCA,0.0132
14,GGACGGCAUGGUCCCAGCCUCCUCGCUGGCGGCGGCUGGGCAACAUUCCGAGGGGACCGUCCCCUCGGUAAUGGCGAAUGGGACCCA,0.0266
15,GGACGGCAUGGUCCCUGCCUCCUCGCUGGCGCCGGCUGGGCAACAUUCCGAGGGGACCGUCCCCUCGGUAAUGGCGAAUGGGACCCA,0.318
16,GUCCGGCAUGGUCCCAGCCUCCUCGCUGGCGCCGGCUGGGCAACAUUCCGAGGGGACCGUCCCCCCGGUAAUGGCGAAUGGGACCCA,0.0391
17,GUCCGGCAUGGUCCCAGCCUCCUCGCUGGCGCCGGCUGGGCAACAUUCCGAGGGGACCGUCCCCGCGGUAAUGGCGAAUGGGACCCA,0.0782
18,GGACGGCAUGGUCCCAGCCUCCUCGCUGGCGCCGGCUGGGCAACAUUCCGAGGGGACAGUCCCCUCGGUAAUGGCGAAUGGGACCCA,0.609
19,GUCCGGCAUGGUCCCAGCCUCCUCGCUGGCGCCGGCUGGGCAACAUUCCGAGGGGACCGUCCCCUCGGUAAUGGCGAAUGUGACCCA,0.0198
20,GUCCGGCAUGGUCCCACCCUCCUCGCUGGCGCCGGCUGGGCAACAUUCCGAGGGGACCGUCCCCUCGGUAAUGGCGAAUGGGACCCA,0.0228
